Measurements as given in PMC10942467 (bioRxiv, 2024).

Target: 6X His-Raf1 (purified recombinant) (UniProt P04049 1-648, fluorescent label in the MST (kind and site not stated))
Assay: MST

B1: GLS (purified recombinant) (enzyme)
chain: HPWWGGGGWPAEPLARGLSSSPSEILQELGKGSTHPQPGVSPPAAPAAPGPKDGPGETDAFGNSEGKELVASGENKIKQGLLPSLEDLLFYTIAEGQEKIPVHKFITALKSTGLRTSDPRLKECMDMLRLTLQTTSDGVMLDKDLFKKCVQSNIVLLTQAFRRKFVIPDFMSFTSHIDELYESAKKQSGGKVADYIPQLAKFSPDLWGVSVCTVDGQRHSTGDTKVPFCLQSCVKPLKYAIAVNDLGTEYVHRYVGKEPSGLRFNKLFLNEDDKPHNPMVNAGAIVVTSLIKQGVNNAEKFDYVMQFLNKMAGNEYVGFSNATFQSERESGDRNFAIGYYLKEKKCFPEGTDMVGILDFYFQLCSIEVTCESASVMAATLANGGFCPITGERVLSPEAVRNTLSLMHSCGMYDFSGQFAFHVGLPAKSGVAGGILLVVPNVMGMMCWSPPLDKMGNSVKGIHFCHDLVSLCNFHNYDNLRHFAKKLDPRREGGDQRVKSVINLLFAAYTGDVSALRRFALSAMDMEQRDYDSRTALHVAAAEGHVEVVKFLLEACKVNPFPKDRWNNTPMDEALHFGHHDVFKILQEYQVQYTPQGDSDNGKENQTVHKNLDGLL
Question: With B1 as the binder, how does the Kd read?
Answer: 183 nM
